Reference: CN113444176A (WUHAN RENFU INNOVATIVE DRUG R&D CENTER CO LTD; HUMANWELL …, dated 2021)
Substitutions are numbered along the chain they refer to. Names and notes keep the numbering of the source. Like-named read-outs stand apart in the source and are kept apart here.

Legend:
重组NT3 (神经营养因子3) = target: T1, 重组NT3 (神经营养因子3) (Rattus norvegicus (Rat), UniProt P18280 140-258); experiment: SPR, Biacore 8K, CM5 chip, antibody as analyte
T1 sequence: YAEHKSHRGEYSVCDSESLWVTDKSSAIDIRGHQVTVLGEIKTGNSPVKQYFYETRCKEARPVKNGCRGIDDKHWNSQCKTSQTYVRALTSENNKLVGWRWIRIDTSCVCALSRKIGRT

重组NT4 (神经营养因子4) = target: T2, 重组NT4 (神经营养因子4) (Homo sapiens (Human), UniProt P34130 81-210); experiment: SPR, Biacore 8K, CM5 chip, antibody as analyte
T2 sequence: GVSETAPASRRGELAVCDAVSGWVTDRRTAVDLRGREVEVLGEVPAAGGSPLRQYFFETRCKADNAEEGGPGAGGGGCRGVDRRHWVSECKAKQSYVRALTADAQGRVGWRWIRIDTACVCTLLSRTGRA

重组BDNF (脑源性神经营养因子) [1] = target: T3, 重组BDNF (脑源性神经营养因子) (Helarctos malayanus (Malayan sun bear) …, UniProt O18753 129-247); experiment: competition ELISA: coated NGF, antibody preincubated with recombinant BDNF
T3 sequence: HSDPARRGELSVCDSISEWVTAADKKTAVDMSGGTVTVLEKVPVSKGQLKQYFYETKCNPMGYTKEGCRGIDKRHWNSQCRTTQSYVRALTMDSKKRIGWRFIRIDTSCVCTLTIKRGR

[2] = target: T4, 重组人NGF蛋白 (recombinant human nerve growth factor) (human, UniProt P01138 122-241); experiment: SPR, Biacore 8K, NGF coupled to CM5 chip, antibody as analyte, 1:1 binding model
T4 construct: also called 重组NGF蛋白; 重组NGF抗原

重组BDNF (脑源性神经营养因子) [3] = target: T3, 重组BDNF (脑源性神经营养因子); experiment: SPR, Biacore 8K, CM5 chip, antibody as analyte
[4] = target: T4, 重组人NGF蛋白 (recombinant human nerve …); experiment: SPR, Biacore 8K, NGF coupled to CM5 chip, antibody as analyte, 1:1 binding model; remark: listed apart in the source

T4 sequence (P01138 122-241 limits assumed): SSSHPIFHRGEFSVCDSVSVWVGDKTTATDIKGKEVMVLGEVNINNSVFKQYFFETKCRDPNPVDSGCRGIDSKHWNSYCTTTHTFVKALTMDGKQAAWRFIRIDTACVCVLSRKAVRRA

B1: 人源化抗NGF抗体Ab01 (antibody, human IgG4 S228P, kappa, V domains shown)
VH: EVQLVESGGGLVKPGGSLRLSCAASGFTFSRYAMSWVRQAPGKGLEWVSTISSGGSYTYYPDSVKGRFTISRDNAKNSLYLQMNSLRAEDTAVYYCARHGEFYGTTFDVHYFDYWGQGTLVTVSS
VL: AIQLTQSPSSLSASVGDRVTITCRASESVDSYGNSFMHWYQQKPGKAPKLLIYLASNLESGVPSRFSGSGSGTDFTLTISSLQPEDFATYYCQQNNEDPLTFGGGTKVEIKR
notes: Humanised from F3; human IgG4 (S228P) heavy constant region and human kappa constant region; expressed in CHO cells
binding result (重组NT3 (神经营养因子3)): no binding
binding result (重组NT4 (神经营养因子4)): no binding
binding result (重组BDNF (脑源性神经营养因子) [1]): no binding
Kd [2]: 0.151 nM
koff [2]: 4.35e-05 s⁻¹
kon [2]: 287000 M⁻¹ s⁻¹

B2: 人源化抗NGF抗体Ab02 (antibody, human IgG4 S228P, kappa, V domains shown)
VH: B1 VH with K13Q, E46V, S78T
VL: EIVLTQSPATLSLSPGERATLSCRASESVDSYGNSFMHWYQQKPGQAPRLLIYLASNLESGIPDRFSGSGSGTDFTLTISRLEPEDFAVYYCQQNNEDPLTFGGGTKVEIKR
notes: as for B1
binding result (重组BDNF (脑源性神经营养因子) [3]): no binding
binding result (重组NT3 (神经营养因子3)): no binding
binding result (重组NT4 (神经营养因子4)): no binding
Kd [2]: 0.137 nM
koff [2]: 4.02e-05 s⁻¹
kon [2]: 294000 M⁻¹ s⁻¹

B3: 人源化抗NGF抗体Ab03 (antibody, human IgG4 S228P, kappa, V domains shown)
VH: B1 VH with K13Q
VL: B2 VL with D64A, R81S
notes: as for B1
binding result (重组BDNF (脑源性神经营养因子) [3]): no binding
binding result (重组NT3 (神经营养因子3)): no binding
binding result (重组NT4 (神经营养因子4)): no binding
Kd [2]: 0.0918 nM
koff [2]: 2.78e-05 s⁻¹
kon [2]: 303000 M⁻¹ s⁻¹

B4: 鼠源抗体F3 (anti-NGF mouse monoclonal antibody F3) (antibody, mouse IgG1, kappa, V domains shown)
VH: EVMLVESGGDLVKPGGSLKLSCAASGFTFSRYAMSWVRQTPEKRLEWVATISSGGSYTYYPDSVKGRFTISRDNAKNTLYLQMSSLRSEDTAMFYCARHGEFYGTTFDVHYFDYWGQGTTLTVSS
VL: YIVLTQSPASLAVSLGQRATISCRASESVDSYGNSFMHWYQQKPGQPPKLLIYLASNLESGVPARFSGSGSRTDFTLTIDPVEADDAATYYCQQNNEDPLTFGTGTKLELKR
notes: Hybridoma antibody; also called 杂交瘤单抗F3
Kd [4]: 0.335 nM
koff [4]: 0.000121 s⁻¹
kon [4]: 363000 M⁻¹ s⁻¹

B5: 鼠源抗体G9 (anti-NGF mouse monoclonal antibody G9) (antibody, mouse IgG1, kappa, V domains shown)
VH: EVQLQQSGTVLARPGTSVRMSCKASGYTFTSYWMHWIKQRPGQGLEWIGAIYPGNSDTSYTQKFKGKAKLTAVTSTSTAYMELSSLTNEDSAVYYCTTPYGYDEDWYFNVWGAGTTVTVPS
VL: NIVMTQSPKSMSMSVGERVTLSCKASENVGTYVSWYQQKPEQPPKLLIYGASNRYTGVPDRFTGCGSATDFTLTISSVQAEDLADYHCGQSYSYPLTFGAGTKLELKR
notes: Hybridoma antibody; also called 杂交瘤单抗G9
Kd [4]: 1.29 nM
koff [4]: 0.000283 s⁻¹
kon [4]: 219000 M⁻¹ s⁻¹
